Experiment: HPLC screening of double-mutant libraries for variants able to glucosylate D-GlcpNAc
Type: biochemical
Conditions: α-D-Glcp-(1→4)-α-D-GlcpNAc (ED) from sucrose and D-GlcpNAc, microplate format
Procedure: The protocol was established to enable the rapid identification of clones for which D-GlcpNAc glucosylation was improved. To obtain higher amounts of enzymes and facilitate detection of glucosylated compounds upon HPLC screening, mutants were produced in 96-DeepWell Format plates. Storage microplates containing monomutants were thawed and replicated to inoculate a starter culture in 96-well microplates containing, in each well, 150 μL LB medium supplemented with ampicillin (100 μg/mL). After growth for 24 h at 30° C. under agitation (200 rpm), plates were duplicated into 96-Deep Well plates containing, in each well, 1.1 mL LB medium supplemented with ampicillin (100 μg/mL) and IPTG (1 mM) to induce GST-AS expression. Cultures were then grown for 24 h at 30° C. under agitation (200 rpm). Plates were centrifuged (20 min, 3000 g, 4° C.) and the supernatant was removed. The cell pellet was resuspended in 200 μL of lysozyme (0.5 mg/mL), followed by freezing at −80° C. for 8 to 12 h. After thawing at room temperature, 100 μL of sucrose and 100 μL of acceptor (each at a final concentration of 73 mM) were added to each well. Enzymatic reaction was incubated at 30° C. during 24 h under agitation. The DeepWell plates were then centrifuged (20 min, 3000 g, 4° C.) and 300 μL of the supernatant was transferred to a filter micro-plate (PVDF 0.2 μm) to be clarified. Supernatant filtration was carried out by centrifugation of the filter micro-plate (5 min, 2000 g, 4° C.) into a novel microplate for screening.
The method for the expression of the mutant libraries is described in Example 1-1.
Acceptor reaction products were analyzed by HPLC analysis using a C18-AQ column (Bischoff C18, 125×4 mm, 3 μm) kept at room temperature and eluted with 0.6 mL/min of ultra-pure water to detect α-D-Glcp-(1→4)-α-D-GlcpNAc formation (analysis time: 7 min). To evaluate the efficiency of the glucosylation reaction, it was carried out complementary HPLC analyses with a Biorad HPX-87K Carbohydrate Analysis column (maintained at 65° C., and eluted at a flow rate of 0.6 mL/min with ultra-pure water). By this way, it was possible to measure sucrose consumption by RI detection and concomitant α-D-Glcp-(1-4)-α-D-GlcpNAc formation by UV220 nm and determine mutant ability to synthesize the desired disaccharide α-D-Glcp-(1→4)-α-D-GlcpNAc (i.e., % Glucosyl units transferred onto acceptor derivatives=[Glucosyl units transferred onto acceptor derivatives]/[Glucosyl units transferred from initial sucrose]×100)
All clones producing sucrose-utilizing variants were then picked and cultured in 96-well microplates. Following cell lysis, the acceptor reaction in the presence of D-GlcpNAc was then carried out in microplate format. HLPC analysis time for each clone was reduced to 7 min for detection of α-D-Glcp-(1→4)-α-D-GlcpNAc. When disaccharide formation was detected, complementary analyses were performed to determine sucrose consumption and disaccharide formation with more accuracy in order to calculate the glucosylation yield.

B1: F290K: single mutant F290K of N. polysaccharea amylosucrase 1G5A (protein)
chain: SPNSQYLKTRILDIYTPEQRAGIEKSEDWRQFSRRMDTHFPKLMNELDSVYGNNEALLPMLEMLLAQAWQSYSQRNSSLKDIDIARENNPDWILSNKQVGGVCYVDLFAGDLKGLKDKIPYFQELGLTYLHLMPLFKCPEGKSDGGYAVSSYRDVNPALGTIGDLREVIAALHEAGISAVVDFIFNHTSNEHEWAQRCAAGDPLFDNFYYIFPDRRMPDQYDRTLREIFPDQHPGGFSQLEDGRWVWTTFNSFQWDLNYSNPWVFRAMAGEMLFLANLGVDILRMDAVAKIWKQMGTSCENLPQAHALIRAFNAVMRIAAPAVFFKSEAIVHPDQVVQYIGQDECQIGYNPLQMALLWNTLATREVNLLHQALTYRHNLPEHTAWVNYVRSHDDIGWTFADEDAAYLGISGYDHRQFLNRFFVNRFDGSFARGVPFQYNPSTGDCRVSGTAAALVGLAQDDPHAVDRIKLLYSIALSTGGLPLIYLGDEVGTLNDDDWSQDSNKSDDSRWAHRPRYNEALYAQRNDPSTAAGQIYQDLRHMIAVRQSNPRFDGGRLVTFNTNNKHIIGYIRNNALLAFGNFSEYPQTVTAHTLQAMPFKAHDLIGGKTVSLNQDLTLQPYQVMWLEIA
In the case of B1, the “Glusosylation Yield to synthesize ED” value (listed as DM4_P2_D12) is reported as 41% and the “Glusosylation Yield to synthesize ED” value (listed as DM4_P2_H4) is reported as 42%.
